Where a chain is given by its changes, count along the chain named. Blank lines part the entries; values can stand above or below the binder they belong to.
Assays:
[1] = target: human CCR9 (isoform not given) (human) (UniProt P51686); test: cell-based or functional assay
[2] = target: CCR9 (species and isoform not stated) (UniProt P51686); test: LigandTracer on CCR9-expressing CHO K1 cells, DyLight 650 labelled IgG, bivalent (1:2) fit, about 22 C
human CCR9B [3] = target: T1, human CCR9B (human, UniProt P51686 13-369); test: binding to HEK cells expressing human CCR9B (huCCR9B), FL1 counts against Log M, methods of Example 4
T1 construct: Overexpressed on HEK cells; also called Hu B HEK; hCCR9 isoform B
T1 sequence: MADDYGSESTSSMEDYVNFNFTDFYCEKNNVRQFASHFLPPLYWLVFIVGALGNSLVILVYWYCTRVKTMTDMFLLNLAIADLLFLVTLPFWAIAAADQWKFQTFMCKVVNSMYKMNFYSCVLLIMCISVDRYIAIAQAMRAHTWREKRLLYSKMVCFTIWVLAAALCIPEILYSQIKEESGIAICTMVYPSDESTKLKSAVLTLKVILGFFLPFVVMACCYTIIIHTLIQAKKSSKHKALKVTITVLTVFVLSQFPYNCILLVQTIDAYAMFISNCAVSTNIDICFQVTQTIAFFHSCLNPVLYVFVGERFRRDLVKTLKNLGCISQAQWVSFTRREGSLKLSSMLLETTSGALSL

[4] = target: CCR9 (species and isoform not stated) (UniProt P51686)
[5] = target: human CCR9 (isoform not given) (human), P51686; test: cell-based or functional assay
[6] = target: CCR9 (species and isoform not stated) (UniProt P51686); test: cell-based or functional assay
mouse CCR9 = target: T2, mouse CCR9 (mouse, UniProt Q9WUT7 1-369); test: cell binding by the methods of Example 4
T2 construct: whole, on cells; Overexpressed on HEK cells; also called mCCR9; Mouse HEK
T2 sequence (looked up): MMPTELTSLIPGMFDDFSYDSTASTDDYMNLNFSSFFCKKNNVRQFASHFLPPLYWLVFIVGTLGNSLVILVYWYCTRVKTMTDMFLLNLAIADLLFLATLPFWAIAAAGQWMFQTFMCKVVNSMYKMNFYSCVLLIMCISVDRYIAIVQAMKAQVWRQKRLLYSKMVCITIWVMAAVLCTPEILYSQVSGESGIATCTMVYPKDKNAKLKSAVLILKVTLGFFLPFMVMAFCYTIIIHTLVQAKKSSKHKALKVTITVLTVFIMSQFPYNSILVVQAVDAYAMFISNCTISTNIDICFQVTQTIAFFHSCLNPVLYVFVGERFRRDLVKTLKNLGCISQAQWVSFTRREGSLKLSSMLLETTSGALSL

rat CCR9 = target: T3, rat CCR9 (rat, UniProt Q8CH33 1-369); test: cell binding by the methods of Example 4
T3 construct: Overexpressed on HEK cells; also called Rat HEK
T3 sequence: T2 sequence (looked up) with M2T, L6F, F17Y, I60V, L64V, V189I, T197I, S272C, A283T

cynomolgus CCR9 = target: T4, cynomolgus CCR9 (cynomolgus, UniProt Q0H741 1-369); test: cell-based or functional assay
T4 sequence: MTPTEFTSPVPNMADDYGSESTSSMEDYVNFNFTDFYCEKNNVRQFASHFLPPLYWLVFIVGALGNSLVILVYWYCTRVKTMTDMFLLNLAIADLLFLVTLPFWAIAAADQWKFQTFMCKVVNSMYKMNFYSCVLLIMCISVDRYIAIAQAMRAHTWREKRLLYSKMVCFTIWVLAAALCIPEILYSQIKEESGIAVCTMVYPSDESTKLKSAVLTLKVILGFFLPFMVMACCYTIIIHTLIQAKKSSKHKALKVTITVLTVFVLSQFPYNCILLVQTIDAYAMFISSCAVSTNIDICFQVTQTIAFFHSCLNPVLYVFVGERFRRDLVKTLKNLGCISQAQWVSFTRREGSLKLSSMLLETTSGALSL

human CCR9A = target: T5, human CCR9A (human, UniProt P51686 1-369); test: binding to cells expressing human CCR9A, FL1 counts against Log M, methods of Example 4
T5 construct: Overexpressed on HEK cells; also called Hu A HEK; hCCR9 isoform A
T5 sequence: T4 sequence with E5D, V10I, V197I, M228V, S288N

[7] = target: human CCR9 (isoform not given) (human), P51686
human CCR9B [8] = target: T1, human CCR9B; test: binding to cells expressing human CCR9B, FL1 counts against Log M, methods of Example 4

Potency, NK cell activation assay (NK-92 MI CD16a NFAT luciferase, in vitro ADCC bioassay) [1]: 0.8 nM
koff [2]: 4.3e-05 s⁻¹
binding result (human CCR9B [3]): binds
EC50 of a CPS dose-response curve (potency; luminescence counts per second as in the NK cell activation assay of Example 4); target cells not named on the sheet (M (axis Log M; no unit in the table)) [4]: 7.3e-09
B1: Humanised AB1020243 (AB1020243-fgl) (antibody, V domains shown)
VH: QVQLVQSGAEVKKPGASVKVSCKASGYTFTSYWMHWVRQAPGQGLEWIGVIYPGNSDTRYNQKFKGRVTITRDTSASTAYMELSSLRSEDTAVYYCTRDYYSNYVYYYAMDYWGQGTTVTVSS
VL: DIVMTQTPLSLPVTPGEPASISCRSSQSLVHSNGNTYLHWYLQKPGQSPQLLIYKVSNRFSGVPDRFSGSGSGTDFTLKISRVEAEDVGVYYCSQSTHVPWTFGQGTKLEIK
notes: For LigandTracer it was labelled with DyLight 650 on an engineered cysteine in CH2; also called humanised AB1020243 afuc

CCL25 induced CCR9 internalisation (FACS) [6]: 2 nM
Kd [2]: 0.09 nM
binding result (mouse CCR9): no binding
binding result (rat CCR9): no binding
binding result (human CCR9A): binds
IC50 (read off the curve) [7]: 0.7 nM
binding result (human CCR9B [8]): binds
B2: AB243LO0326 (antibody, V domains shown)
VH: B1 VH
VL: B1 VL with S32P, G34R
notes: CDR-optimised humanised antibody, a-fuc huIgG1 (afucosylated in all experiments); For LigandTracer it was labelled with DyLight 650 on an engineered cysteine in CH2; also called CDR-optimised AB1020243
EC50, killing of PBMC [5]: 0.004 nM
EC50, killing of human CD4+CCR9+ PBMC [5]: 0.004 to 0.005 nM
EC50, killing of cynomolgus CD4+CCR9+ PBMC (cynomolgus CCR9): 0.03 nM

binding result (mouse CCR9): no binding
binding result (rat CCR9): no binding
IC50 (read off the curve) [7]: 0.7 nM
B3: AB243LO0331 (antibody, V domains shown)
VH: B1 VH
VL: B1 VL with G34T
notes: CDR-optimised humanised antibody, a-fuc huIgG1 (afucosylated in all experiments); The constant regions are not expressly tied to it
